This note sets out measurements from patent US20150337037A1 (MSM PROTEIN TECHNOLOGIES, published 2015).

For assay [1], the target named is T1, cynomolgus monkey CCR6 (cynomolgus monkey (Macaca Fascicularis)).
T1 construct: whole, on cells; gene derived from a total RNA library; also called CCR6 cyno; cyno CCR6
Put plainly: flow cytometry on cells expressing the target, IgG1 titration (repeat of Table 2).

Assay [2] deals with T2, human chemokine receptor CCR6 (human, UniProt P51684 1-374).
T2 construct: whole, on cells; gene was synthesized (codon-optimized); a C-terminal tag may be present on the expressed protein; also called CCR6 human; human CCR6
T2 sequence (looked up): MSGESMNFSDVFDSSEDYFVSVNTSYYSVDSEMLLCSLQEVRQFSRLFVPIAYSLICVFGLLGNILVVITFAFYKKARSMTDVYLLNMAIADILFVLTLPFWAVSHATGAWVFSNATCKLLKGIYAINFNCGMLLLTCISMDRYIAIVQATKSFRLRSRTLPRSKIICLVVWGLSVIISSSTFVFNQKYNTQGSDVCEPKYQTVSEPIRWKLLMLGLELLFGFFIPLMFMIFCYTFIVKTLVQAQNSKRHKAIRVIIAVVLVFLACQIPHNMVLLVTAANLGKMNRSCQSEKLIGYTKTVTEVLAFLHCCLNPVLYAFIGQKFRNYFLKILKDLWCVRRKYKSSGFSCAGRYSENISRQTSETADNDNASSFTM
The assay is described as above.

Assay [3] has as its target T1, cynomolgus monkey CCR6. Put plainly: flow cytometry on cells expressing the target, IgG1 titration, anti-human Fc-PE.
Assay [4] concerns the target T2, human chemokine receptor CCR6. Described as above.
Assay [5] deals with T3, mouse CCR6 (mouse, UniProt O54689 1-367).
T3 construct: whole, on cells; gene derived from a cDNA library; also called CCR6 mouse
T3 sequence (looked up): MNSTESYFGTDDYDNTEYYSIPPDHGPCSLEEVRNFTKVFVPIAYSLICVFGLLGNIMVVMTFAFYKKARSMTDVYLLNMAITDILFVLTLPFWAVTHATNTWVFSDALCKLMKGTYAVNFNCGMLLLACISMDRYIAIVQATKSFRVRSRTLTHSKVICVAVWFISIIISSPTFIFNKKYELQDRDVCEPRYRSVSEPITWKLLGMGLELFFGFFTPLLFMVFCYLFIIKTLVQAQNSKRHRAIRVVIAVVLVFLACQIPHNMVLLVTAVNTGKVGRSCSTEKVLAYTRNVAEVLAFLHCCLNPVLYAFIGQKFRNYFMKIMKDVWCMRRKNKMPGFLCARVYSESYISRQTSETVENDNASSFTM
Put plainly: flow cytometry on cells expressing the target, IgG1 titration (repeat of Table 2).

Assay [6] deals with T3, mouse CCR6. Put plainly: flow cytometry on cells expressing the target, IgG1 titration, anti-human Fc-PE.
The target of assay [7] is T3, mouse CCR6. Put plainly: flow cytometry on CHO cells expressing mouse CCR6.
The target of assay [8] is T2, human chemokine receptor CCR6. Put plainly: cell-based or functional assay.
Assay [9] shares this target. Put plainly: cell-based or functional assay. This is another data set of the same source.
For another assay, the target named is T4, human CXCR6 (human, UniProt O00574 1-342).
T4 construct: whole, on cells
T4 sequence (O00574 whole entry): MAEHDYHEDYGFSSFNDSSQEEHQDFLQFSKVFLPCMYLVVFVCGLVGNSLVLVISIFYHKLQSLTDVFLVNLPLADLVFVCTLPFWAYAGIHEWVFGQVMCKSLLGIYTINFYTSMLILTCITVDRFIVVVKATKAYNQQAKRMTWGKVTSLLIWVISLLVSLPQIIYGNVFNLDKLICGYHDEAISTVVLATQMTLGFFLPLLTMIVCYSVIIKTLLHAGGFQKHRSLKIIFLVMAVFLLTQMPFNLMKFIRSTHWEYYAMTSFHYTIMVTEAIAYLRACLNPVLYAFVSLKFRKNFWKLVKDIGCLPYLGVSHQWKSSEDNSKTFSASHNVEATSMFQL
Put plainly: flow cytometry on GPCR-expressing cell panel.

Assay [10] deals with T2, human chemokine receptor CCR6. Put plainly: flow cytometry on R1610 cells expressing human CCR6, IgG1 titration, anti-human Fc-PE.

A value given as a limit tells only on which side of the number the result lay.

B1: MSM-R617 IgG1 (antibody, V domains shown)
VH: EVQLLESGGGLVQPGGSLRLSCAASGFTFSGYAMHWVRQAPGKGLEWVSSIGSRRGFTSYADSVKGRFTISRDNSKNTLYLQMNSLRAEDTAVYYCARSYAYQYRGLDYWGQGTLVTVSS
VL: EIVLTQSPGTLSLSPGERATLSCRASQSVSSSYLAWYQQKPGQAPRLLIYGASSRATGIPDRFSGSGSGTDFTLTISRLEPEDFAVYYCQQRSSVTFGQGTKVEIKR
notes: Fully human IgG1; also called MSMR617.46
With B1, the EC50 with cynomolgus monkey CCR6 [1] stood at 1.9 nM; in assay [2] it was 1.5 nM; in the assay with cynomolgus monkey CCR6 [3], 1.9 nM; in assay [4] it was 1.5 nM.

B2: MSM-R612 IgG1 (antibody, V domains shown)
VH: EVQLLGSGGGLVQPGGSLRLSCAASGFTFTTYYMHWVRQAPGKGLEWVSLISPNAGNTYYADSVKGRFTISRDNSKNTLYLQMNSLRAEDTAVYYCARGRSRAGTSGMDYWGQGTLVTVSS
VL: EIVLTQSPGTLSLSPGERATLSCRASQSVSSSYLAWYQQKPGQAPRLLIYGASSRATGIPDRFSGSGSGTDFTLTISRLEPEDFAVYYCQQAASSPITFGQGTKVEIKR
notes: Fully human IgG1
Turning to B2, the EC50 came to 1.5 nM with mouse CCR6 [5]; 1.6 nM with cynomolgus monkey CCR6 [1]; 1 nM in assay [2]; 1.5 nM with mouse CCR6 [6]; 1.6 nM with cynomolgus monkey CCR6 [3]; 1 nM in assay [4].

B3: MSM-R619 IgG1 (antibody, V domains shown)
VH: EVQLLESGGGLVQPGGSLRLSCAASGFTFSNYYIHWVRQAPGKGLEWVSLISPGGSTTYYADSVKGRFTISRDNSKNTLYLQMNSLRAEDTAVYYCARGRTWWSTYYSGIDYWGQGTLVTVSS
VL: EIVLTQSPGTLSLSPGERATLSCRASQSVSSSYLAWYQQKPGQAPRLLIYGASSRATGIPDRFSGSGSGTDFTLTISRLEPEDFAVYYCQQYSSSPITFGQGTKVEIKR
notes: Fully human IgG1; also called MSM R19
As for B3, the EC50 with cynomolgus monkey CCR6 [1] was found to be 2 nM; in assay [2], 1.7 nM; in the assay with cynomolgus monkey CCR6 [3] it was 2 nM; in assay [4], 1.7 nM. In addition, the binding result with mouse CCR6 [7] was “no binding”.

B4: MSM-R607 IgG1 (antibody, V domains shown)
VH: EVQLLESGGGLVQPGGSLRLSCAASGFTFSSYYMHWVRQAPGKGLEWVSLIAPANSDTYYADSVKGRFTISRDNSKNTLYLQMNSLRAEDTAVYYCARSSYTRHSSKRGMDYWGQGTLVTVSS
VL: EIVLTQSPGTLSLSPGERATLSCRASQSVSSSYLAWYQQKPGQAPRLLIYGASSRATGIPDRFSGSGSGTDFTLTISRLEPEDFAVYYCQQAAYSPITFGQGTKVEIKR
notes: Fully human IgG1
As for B4, the “IC50, nM CCL20-Ca-Flux” value in assay [8] stood at 13.5 nM. Further, the EC50 stood at 1 nM with mouse CCR6 [5]; 2 nM with cynomolgus monkey CCR6 [1]; 1.2 nM in assay [2]; 1 nM with mouse CCR6 [6]; 2 nM in the assay with cynomolgus monkey CCR6 [3]; 1.2 nM in assay [4]. For the same molecule, in [9], the “Ca-Flux IC50, nM CCR6/CCL20” value was determined as 13.5 nM. Besides, in the assay with human CXCR6, the binding result is “binds”.

B5: MSM-R610 IgG1 (antibody, V domains shown)
VH: EVQLLESGGGLVQPGGSLRLSCAASGFTFTGSSMSWVRQAPGKGLEWVSLISSRGSYTYYADSVKGRFTISRDNSKNTLYLQMNSLRAEDTAVYYCARSYAYQYRGLDYWGQGTLVTVSS
VL: EIVLTQSPGTLSLSPGERATLSCRASQSVSSSYLAWYQQKPGQAPRLLIYGASSRATGIPDRFSGSGSGTDFTLTISRLEPEDFAVYYCQQNRTSPITFGQGTKVEIKR
notes: Fully human IgG1; also called MSM R610.46
Take B5: the EC50 (with cynomolgus monkey CCR6 [1]; in assay [2]; with cynomolgus monkey CCR6 [3]; in [4]) was > 100 nM each time. The binding result with mouse CCR6 [7] is “no binding”.

B6: MSM-R609 IgG1 (antibody, V domains shown)
VH: EVQLLESGGGLVQPGGSLRLSCAASGFTFTASYMSWVRQAPGKGLEWVSNISPKYGNTYYADSVKGRFTISRDNSKNTLYLQMNSLRAEDTAVYYCARSIRSAKYSYYGIDYWGQGTLVTVSS
VL: EIVLTQSPGTLSLSPGERATLSCRASQSVSSSYLAWYQQKPGQAPRLLIYGASSRATGIPDRFSGSGSGTDFTLTISRLEPEDFAVYYCQQSASAPVTFGQGTKVEIKR
notes: Fully human IgG1
As to B6, the EC50 in the assay with cynomolgus monkey CCR6 [1] amounted to 1.6 nM; in assay [2], 1 nM; with cynomolgus monkey CCR6 [3] it was 1.6 nM; in assay [4] it was 1 nM.

B7: MSM-R615 IgG1 (antibody, V domains shown)
VH: EVQLLESGGGLVQPGGSLRLSCAASGFTFSSYYMHWVRQTPGKGLEWVSIISPWSSSTYYADSVKGRFTISRDNSKNTLYLQMNSLRAEDTAVYYCARSSYSWGESYKRAIDYWGQGTLVTVSS
VL: EIVLTQSPGTLSLSHGERATLSCRASQSVSSSYLAWYQQKPGQAPRLLIYGASSRATGIPDRFSGSGSGTDFTLTISRLEPEDFAVYYCQQSYYSPVTFGQGTKVEIKR
notes: Fully human IgG1
For B7, the EC50 in assay [10] is 1 nM; in the assay with cynomolgus monkey CCR6 [1], 2.5 nM; in assay [2], 1 nM; in the assay with cynomolgus monkey CCR6 [3], 2.5 nM. For the same molecule, the binding result in the assay with mouse CCR6 [7] is recorded as “no binding”.

B8: MSM-R604 IgG1 (antibody, V domains shown)
VH: EVQLLESGGGLVQPGGSLRLSCAASGFTFTNYSMHWVRQAPGKGLEWVSLISPYSSSTYYADSMKGRFTISRDNSKNTLYLQMNSLRAEDTAVYYCARGRYYGAYSYPGFDYWGQGTLVTVSS
VL: EIVLTQSPGTLSLSPGERATLSCRASQSVSSSYLAWYQQKPGQAPRLLIYGASSRATGIPDRFSGSGSGTDFTLTISRLEPEDFAVYYCQQSAKNPLTFGQGTKVEIKR
notes: Fully human IgG1
Take B8: the EC50 stood at 1.5 nM with cynomolgus monkey CCR6 [1], 2.9 nM in assay [2], 1.5 nM with cynomolgus monkey CCR6 [3] and 2.9 nM in assay [4]. In addition, the binding result with mouse CCR6 [7] is recorded as “no binding”.

B9: MSM-R622 IgG1 (antibody, V domains shown)
VH: EVQLLESGGGLVQPGGSLRLSCAASGFTFSKNSMSWVRQAPGKGLEWVSLITSYSGYTYYADSVKGRFTISRDNSKNTLYLQMNSLRAEDTAVYYCARSYAYQYRGLDYWGQGTLVTVSS
VL: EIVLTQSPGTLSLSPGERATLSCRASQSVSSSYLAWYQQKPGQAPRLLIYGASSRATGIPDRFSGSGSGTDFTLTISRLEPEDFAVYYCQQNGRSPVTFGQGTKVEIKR
notes: Fully human IgG1; also called MSM R622.46
Take B9: the EC50 in assay [2] and in assay [4] was 1.9 nM in each case.

B10: MSM-R621 IgG1 (antibody, V domains shown)
VH: EVQLLESGGGLVQPGGSLRLSCAASGFTFTTYYMHWVRQAPGKGLEWVSGIGPRGSWTGYADSVKGRFTISRDNSKNTLYLQMNSLRAEDTAVYYCARGRALVSNYSGLDYWGQGTLVTVSS
VL: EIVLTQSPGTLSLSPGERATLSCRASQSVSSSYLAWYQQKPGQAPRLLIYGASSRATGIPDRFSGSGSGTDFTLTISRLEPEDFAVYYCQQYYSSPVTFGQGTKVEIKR
notes: Fully human IgG1
For the molecule B10, the EC50 with mouse CCR6 [5] was 30 nM; with cynomolgus monkey CCR6 [1] it was 2.2 nM; in assay [2] it was 1.5 nM; in the assay with mouse CCR6 [6] it was 30 nM; with cynomolgus monkey CCR6 [3], 2.2 nM; in assay [4], 1.5 nM. Besides, the binding result with human CXCR6 is given as “binds”.

B11: MSM-R606 IgG1 (antibody)
heavy: not shown
light: EIVLTQSPGTLSLSPGERATLSCRASQSVSSSYLAWYQQKPGQAPRLLIYGASSRATGIPDRFSGSGSGTDFTLTISRLEPEDFAVYYCQQSSYSPITFGQGTKVEIKRTVAAPSVFIFPPSDEQLKSGTASVVCLLNNFYPREAKVQWKVDNALQSGNSQESVTEQDSKDSTYSLSSTLTLSKADYEKHKVYACEVTHQGLSSPVTKSFNRGEC
notes: Fully human IgG1
B11: in [8], the “IC50, nM CCL20-Ca-Flux” value was 8.3 nM. Also, the concentration giving a half-maximal response (EC50) with mouse CCR6 [5] was found to be 0.7 nM; in the assay with cynomolgus monkey CCR6 [1], 1.7 nM; in assay [2], 1.4 nM; in the assay with mouse CCR6 [6], 0.7 nM; in the assay with cynomolgus monkey CCR6 [3], 1.7 nM; in assay [4], 1.4 nM. The “Ca-Flux IC50, nM CCR6/CCL20” value in assay [9] is 8.3 nM.

B12: MSM-R608 IgG1 (antibody)
heavy: not shown
light: EIVLTQSPGTLSLSPGERATLSCRASQSVSSSYLAWYQQKPGQAPRLLIYGASSRATGIPDRFSGSGSGTDFTLTISRLEPEDFAVYYCQQSYYAPVTFGQGTKVEIKRTVAAPSVFIFPPSDEQLKSGTASVVCLLNNFYPREAKVQWKVDNALQSGNSQESVTEQDSKDSTYSLSSTLTLSKADYEKHKVYACEVTHQGLSSPVTKSFNRGEC
notes: Fully human IgG1
For B12, the EC50 with mouse CCR6 [5] amounted to 1 nM; with cynomolgus monkey CCR6 [1] it was 2.5 nM; in assay [2], 2 nM; in the assay with mouse CCR6 [6] it was 1 nM; with cynomolgus monkey CCR6 [3] it was 2.5 nM; in [4] it was 2 nM.
